B1: CER105: Chimeric engulfment receptor: Tim4 binding, Tim4 transmembrane, TLR8 and Baff-R signaling; SEQ ID NO: 140 (protein)
chain: MSKGLLLLWLVTELWWLYLTPAASEDTIIGFLGQPVTLPCHYLSWSQSRNSMCWGKGSCPNSKCNAELLRTDGTRIISRKSTKYTLLGKVQFGEVSLTISNTNRGDSGVYCCRIEVPGWFNDVKKNVRLELRRATTTKKPTTTTRPTTTPYVTTTTPELLPTTVMTTSVLPTTTPPQTLATTAFSTAVTTCPSTTPGSFSQETTKGSAFTTESETLPASNHSQRSMMTISTDIAVLRPTGSNPGILPSTSQLTTQKTTLTTSESLQKTTKSHQINSRQTILIIACCVGFVLMVLLFLAFLHHLFYWDVWFIYNVCLAKVKGYRSLSTSQTFYDAYISYDTKDASVTDWVINELRYHLEESRDKNVLLCLEERDWDPGLAIIDNLMQSINQSKKTVFVLTKKYAKSWNFKTAFYLALQRLMDENMDVIIFILLEPVLQHSQYLRLRQRICKSSILQWPDNPKAEGLFWQTLRNVVLTENDSRYNNMYVDSIKQYSWRRRQRRLRGASSAEAPDGDKDAPEPLDKVIILSPGISDATAPAWPPPGEDPGTTPPGHSVPVPATELGSTELVTTKTAGPEQQ
modifications: CER105, amino acids 1-22 are signal peptide
B2: CER103B: Chimeric engulfment receptor: Tim4 binding, Tim4 transmembrane, TLR8 and CD79b (185-213) signaling; SEQ ID NO: 138 (protein)
chain: MSKGLLLLWLVTELWWLYLTPAASEDTIIGFLGQPVTLPCHYLSWSQSRNSMCWGKGSCPNSKCNAELLRTDGTRIISRKSTKYTLLGKVQFGEVSLTISNTNRGDSGVYCCRIEVPGWFNDVKKNVRLELRRATTTKKPTTTTRPTTTPYVTTTTPELLPTTVMTTSVLPTTTPPQTLATTAFSTAVTTCPSTTPGSFSQETTKGSAFTTESETLPASNHSQRSMMTISTDIAVLRPTGSNPGILPSTSQLTTQKTTLTTSESLQKTTKSHQINSRQTILIIACCVGFVLMVLLFLAFLHHLFYWDVWFIYNVCLAKVKGYRSLSTSQTFYDAYISYDTKDASVTDWVINELRYHLEESRDKNVLLCLEERDWDPGLAIIDNLMQSINQSKKTVFVLTKKYAKSWNFKTAFYLALQRLMDENMDVIIFILLEPVLQHSQYLRLRQRICKSSILQWPDNPKAEGLFWQTLRNVVLTENDSRYNNMYVDSIKQYDSKAGMEEDHTYEGLDIDQTATYEDIVTL
modifications: CER103B, amino acids 1-22 are signal peptide
B3: CER106: Chimeric engulfment receptor: Tim4 binding, Tim4 transmembrane, NFAM1 and TLR8 signaling; SEQ ID NO: 141 (protein)
chain: MSKGLLLLWLVTELWWLYLTPAASEDTIIGFLGQPVTLPCHYLSWSQSRNSMCWGKGSCPNSKCNAELLRTDGTRIISRKSTKYTLLGKVQFGEVSLTISNTNRGDSGVYCCRIEVPGWFNDVKKNVRLELRRATTTKKPTTTTRPTTTPYVTTTTPELLPTTVMTTSVLPTTTPPQTLATTAFSTAVTTCPSTTPGSFSQETTKGSAFTTESETLPASNHSQRSMMTISTDIAVLRPTGSNPGILPSTSQLTTQKTTLTTSESLQKTTKSHQINSRQTILIIACCVGFVLMVLLFLAFLLWNKKRMRGPGKDPTRKCPDPRSASSPKQHPSESVYTALQRRETEVYACIENEDGSSPTAKQSPLSQERPHRFEDDGELNLVYENLHHLFYWDVWFIYNVCLAKVKGYRSLSTSQTFYDAYISYDTKDASVTDWVINELRYHLEESRDKNVLLCLEERDWDPGLAIIDNLMQSINQSKKTVFVLTKKYAKSWNFKTAFYLALQRLMDENMDVIIFILLEPVLQHSQYLRLRQRICKSSILQWPDNPKAEGLFWQTLRNVVLTENDSRYNNMYVDSIKQY
modifications: CER106, amino acids 1-22 are signal peptide
B4: CER27: Chimeric engulfment receptor: Tim4 binding, Tim4 transmembrane, TLR2 signaling; SEQ ID NO: 98 (protein)
chain: MSKGLLLLWLVTELWWLYLTPAASEDTIIGFLGQPVTLPCHYLSWSQSRNSMCWGKGSCPNSKCNAELLRTDGTRIISRKSTKYTLLGKVQFGEVSLTISNTNRGDSGVYCCRIEVPGWFNDVKKNVRLELRRATTTKKPTTTTRPTTTPYVTTTTPELLPTTVMTTSVLPTTTPPQTLATTAFSTAVTTCPSTTPGSFSQETTKGSAFTTESETLPASNHSQRSMMTISTDIAVLRPTGSNPGILPSTSQLTTQKTTLTTSESLQKTTKSHQINSRQTILIIACCVGFVLMVLLFLAFLHRFHGLWYMKMMWAWLQAKRKPRKAPSRNICYDAFVSYSERDAYWVENLMVQELENFNPPFKLCLHKRDFIPGKWIIDNIIDSIEKSHKTVFVLSENFVKSEWCKYELDFSHFRLFDENNDAAILILLEPIEKKAIPQRFCKLRKIMNTKTYLEWPMDEAQREGFWVNLRAAIKS
modifications: CER27, amino acids 1-22 are signal peptide

Tested on: SCC152 cells
Test: Elimination of GFP-expressing SCC152 target cells over time (quantification and time lapse imaging)
Assay type: cell-based
Conditions: 96-well co-culture, CD8+/E7 TCR + CD4+/CER + SCC152 1:1:1, compared to control
Description: Target SCC152 cells were co-cultured with CD8+ T cells transduced with HPV E7 TCR+CD4+ T cells transduced with a selected CER, or controls (CD8+ T cell transduced with HPV E7 TCR+CD4+ transduced control) at a 1:1:1 ratio. The number of target cells were quantified using imaging software. 0 hours, 24 hours, and 48 hours are shown from left to right.
(§1) FIG. 21 is time lapse imaging from 96-well co-culture experiments comprising CD8+ T cells transduced with HPV16 E7 TCR+CD4+ T cells transduced with CER5, CER17 or CER19 incubated with SCC152 target cells at a 1:1:1 ratio. SCC152 HPV+ target cells were quantified using automated cell counting software.
as §1, with “22” for “21”, “CER21, CER23” for “CER5, CER17”, “CER26” for “CER19”
as §1, with “23” for “21”, “CER103b, CER104” for “CER5, CER17”, “CER105” for “CER19”
as §1, with “24” for “21”, “CER106, CER116” for “CER5, CER17”, “CER27” for “CER19”
FIG. 57 is a bar graph showing quantification of loss of SCC152 HPV16+ target cells over time during co-culture assays. SCC152 cells were transduced with green fluorescent protein (GFP) and co-cultured with CD8+ T cells transduced with HPV16 E7 TCR and CD4+ T cells transduced with a selected CER (CER29, CER30, CER110, CER112, CER113, CER114, CER116, or CER117) or a CD4+ T cell control at a 1:1:1 ratio (CD8:CD4:target cell). The number of target cells was quantified at various time points during co-culture (0 hrs, 12 hrs, 24 hrs, and 36 hrs) using fluorescence microscopy and imaging software.
(§2) FIG. 58 are fluorescence micrograph images of the co-culture assay described in FIG. 57, showing clearance of the SCC152 cells (pink) as co-culture with CD8+ T cells transduced with HPV16 E7 TCR and CD4+ T cells transduced with a selected CER (columns from left to right: control, CER29, CER30, CER110, or CER112) progresses (rows from top to bottom: 0 hrs, 12 hrs, 24 hrs, and 36 hrs).
as §2, with “59” for “58”, “CER113, CER114, CER116,” for “CER29, CER30, CER110,”, “CER117)” for “CER112)”
(§3) Elimination of target SCC152 cells was also detected by quantifying green fluorescent protein expression by SCC152 cells over time (0 hr, 24 hr, 48 hr) during co-incubation with CD8+ T cells transduced with HPV16 E7 specific TCR+ CD4 T cells transduced with selected CER (see, FIG. 20).
as §3, with “hr, 12 hr,” for “hr,”, “hr, 36” for “hr, 48”, “TCR+ CD4+” for “TCR+ CD4”, “CER (CER29, CER30, CER110, CER112, CER113, CER114, CER116, or CER117)” for “CER”, “FIG. 57).” for “FIG. 20).”

Row | Molecule | number of SCC152 cells in time lapse imaging
1 | B1 | decreasing in numbers over time
2 | B2 | decreasing in numbers over time
3 | B3 | decreasing in numbers over time
4 | B4 | decreasing in numbers over time
